Tests used:
HLA-B*08:01 = assay: IEDB peptide-MHC binding, purified MHC/direct/fluorescence; filed as Kd, often an IC50 or EC50 that approximates it; ≥ and ≤ were set here for values at or beyond the usual limits of such assays; details: source organism: Rickettsia felis URRWXCal2
HLA-B*15:01 [1] = assay: as above
HLA-A*24:02 = assay: as above
HLA-B*40:01 = assay: as above
HLA-B*58:01 [2] = assay: as above
HLA-B*27:05 = assay: as above
HLA-A*03:01 [3] = assay: as above
HLA-B*46:01 [4] = assay: as above
HLA-B*18:01 [5] = assay: as above
HLA-A*26:01 [6] = assay: as above; details: source organism: Rickettsia felis URRWXCal2
HLA-A*31:01 = assay: as above
HLA-A*11:01 = assay: as above
HLA-A*69:01 [7] = assay: as above
HLA-B*44:02 = assay: as above
HLA-A*01:01 [8] = assay: as above
HLA-B*07:02 = assay: as above
HLA-A*02:01 [9] = assay: as above
HLA-A*80:01 = assay: as above; details: source organism: West Nile virus
HLA-B*48:01 = assay: as above; details: source organism: West Nile virus
HLA-A*29:02 = assay: as above
HLA-B*57:01 [10] = assay: as above; details: source organism: West Nile virus
HLA-B*15:01 [11] = assay: IEDB peptide-MHC binding, purified MHC/competitive/fluorescence; filed as Kd, often an IC50 or EC50 that approximates it; ≥ and ≤ were set here for values at or beyond the usual limits of such assays
HLA-B*58:01 [12] = assay: as above
HLA-A*03:01 [13] = assay: as above; details: source organism: Salmonella enterica subsp. enterica serovar Typhi
HLA-A*01:01 [14] = assay: as above
HLA-A*02:12 = assay: IEDB peptide-MHC binding, purified MHC/direct/fluorescence; filed as Kd, often an IC50 or EC50 that approximates it; ≥ and ≤ were set here for values at or beyond the usual limits of such assays
HLA-A*23:01 = assay: as above
HLA-A*02:16 = assay: as above
HLA-A*24:03 = assay: as above
HLA-A*68:02 = assay: as above
HLA-A*02:11 = assay: as above
HLA-A*02:03 = assay: as above
HLA-A*02:19 = assay: as above
HLA-B*46:01 [15] = assay: IEDB peptide-MHC binding, purified MHC/competitive/fluorescence; filed as Kd, often an IC50 or EC50 that approximates it; ≥ and ≤ were set here for values at or beyond the usual limits of such assays
HLA-B*51:01 = assay: as above
HLA-B*39:01 = assay: as above
HLA-B*15:17 = assay: as above
HLA-B*27:03 = assay: as above; details: source organism: Bacillus anthracis str. A0488
HLA-B*18:01 [16] = assay: as above
HLA-A*26:01 [17] = assay: as above
HLA-A*69:01 [18] = assay: as above
HLA-B*57:01 [19] = assay: as above
HLA-A*02:01 [20] = assay: as above
[21] = source organism: Rickettsia australis
[22] = source organism: Giardia lamblia ATCC 50803
[23] = source organism: West Nile virus
[24] = source organism: Salmonella enterica subsp. enterica serovar Typhi
[25] = source organism: Bacillus cereus 03BB108
[26] = source organism: Bacillus anthracis str. A0488
[27] = source organism: Bacillus anthracis str. Sterne
[28] = source organism: Bacillus anthracis str. A2012
[29] = source organism: Burkholderia mallei ATCC 23344
[30] = source organism: Salmonella enterica subsp. enterica serovar Paratyphi B str. SPB7

Measured: Kd

ATYGTAVNK
0.0833 µM: HLA-A*03:01 [3]; [21]
29.6 nM: HLA-A*11:01; [21]
≥ 20 µM: HLA-B*08:01 | HLA-A*24:02; [21] | HLA-B*40:01; [21] | HLA-B*58:01 [2]; [21] | HLA-B*27:05; [21] | HLA-B*46:01 [4]; [21] | HLA-B*18:01 [5]; [21] | HLA-A*26:01 [6] | HLA-A*69:01 [7]; [21] | HLA-B*44:02; [21] | HLA-A*01:01 [8]; [21] | HLA-B*07:02; [21]
≥ 20000 nM: HLA-B*15:01 [1]; [21] | HLA-A*02:01 [9]; [21]
37.1 nM: HLA-A*31:01; [21]

WLKEKHEEL
≥ 20000 nM: HLA-A*11:01; [22]
≥ 20 µM: HLA-A*24:02; [22] | HLA-B*40:01; [22] | HLA-B*58:01 [2]; [22] | HLA-B*27:05; [22] | HLA-A*03:01 [3]; [22] | HLA-B*46:01 [4]; [22] | HLA-B*18:01 [5]; [22] | HLA-B*44:02; [22] | HLA-A*01:01 [8]; [22] | HLA-B*07:02; [22]
304 nM: HLA-A*02:01 [9]; [22]
498 nM: HLA-B*15:01 [1]; [22]

MLRKKQITV
≥ 20000 nM: HLA-A*31:01; [23]
≥ 20 µM: HLA-B*40:01; [23] | HLA-A*80:01 | HLA-B*58:01 [2]; [23] | HLA-B*27:05; [23] | HLA-B*46:01 [4]; [23] | HLA-B*48:01 | HLA-A*29:02; [23] | HLA-B*18:01 [5]; [23] | HLA-A*69:01 [7]; [23] | HLA-B*57:01 [10] | HLA-B*44:02; [23] | HLA-A*01:01 [8]; [23]

ASIADILTY
≥ 20 µM: HLA-A*03:01 [13]
425 nM: HLA-B*15:01 [11]; [24]
764 nM: HLA-A*01:01 [14]; [24]
20.7 nM: HLA-B*58:01 [12]; [24]

SYMLQGLRK
≥ 20 µM: HLA-A*02:12; [25] | HLA-A*23:01; [25] | HLA-A*03:01 [3]; [25] | HLA-A*02:16; [25] | HLA-A*24:03; [25] | HLA-A*68:02; [25] | HLA-A*02:11; [25] | HLA-A*02:03; [25] | HLA-A*02:19; [25] | HLA-B*46:01 [15]; [26] | HLA-B*51:01; [26] | HLA-B*39:01; [26] | HLA-B*15:17; [26] | HLA-B*27:03 | HLA-B*18:01 [16]; [26] | HLA-A*26:01 [17]; [26] | HLA-A*69:01 [18]; [26] | HLA-B*57:01 [19]; [26] | HLA-A*02:01 [20]; [26]
228 nM: HLA-A*11:01; [25]

KKNHWFILK
≥ 20 µM: HLA-A*02:12; [27] | HLA-A*23:01; [27] | HLA-A*02:16; [27] | HLA-A*24:03; [27] | HLA-A*29:02; [27] | HLA-A*68:02; [27] | HLA-A*02:11; [27] | HLA-A*02:03; [27] | HLA-A*02:19; [27] | HLA-B*46:01 [15]; [28] | HLA-B*51:01; [28] | HLA-B*39:01; [28] | HLA-B*15:17; [28] | HLA-B*18:01 [16]; [28] | HLA-A*26:01 [17]; [28] | HLA-A*69:01 [18]; [28] | HLA-B*57:01 [19]; [28] | HLA-A*02:01 [20]; [28]
254 nM: HLA-A*11:01; [27]

CYRGVRHRK
0.41 µM: HLA-A*23:01; [29]
1.39 µM: HLA-A*24:03; [29]

IFQKISFFW
0.017 µM: HLA-A*24:02; source organism: Cryptosporidium parvum Iowa II

FSDLLSMAW
1.4 nM: HLA-A*01:01 [14]; [30]
≥ 20000 nM: HLA-B*15:01 [11]; [30]
2.4 nM: HLA-B*58:01 [12]; [30]
